Source: US20210024639A1 (AGOMAB THERAPEUTICS, published 2021)
Residue numbers refer to the chain shown, from its start. Each block holds one binder with its values, some of them ahead of it.

What was measured:
[1] = target: T1, native human MET on living human cells (human, UniProt P08581 25-1390); test: flow cytometry, A549 cells
T1 construct: whole, on cells; also called Human cells (A549); HPAF-II
Procedure: (§1) We also analysed whether chimeric anti-MET antibodies bound to native human and mouse MET in living cells. […] Antibody binding to cells was analysed by flow cytometry using phycoerythrin-conjugated anti-human IgG1 antibodies (eBioscience) and a CyAn ADP analyser (Beckman Coulter). As a positive control for human MET binding, we used a commercial mouse anti-human MET antibody (R&D Systems) and phycoerythrin-conjugated anti-mouse IgG1 antibodies (eBioscience). As a positive control for mouse MET binding we used a commercial goat anti-mouse MET antibody (R&D Systems) and phycoerythrin-conjugated anti-goat IgG1 antibodies (eBioscience). […] Consistent with the data obtained in ELISA, maximal binding (EMAX) varied depending on antibody, but was similar in human and mouse cells.

[2] = target: T2, native mouse MET on living mouse cells (mouse, UniProt P16056 25-1379); test: flow cytometry, MLP29 cells
T2 construct: whole, on cells; also called Mouse cells (MLP29)
Procedure: as §1

[3] = target: T3, human MET-Fc chimeric protein (R&D Systems) (human, UniProt P08581 25-932); test: competition ELISA, hMET-Fc in solid phase, competitor 0.3 nM biotinylated hHGF
T3 construct: extracellular domain; bought (R&D Systems); also called hMET; not shown: Fc portion of human IgG1
T3 sequence (P08581 25-932, change not shown): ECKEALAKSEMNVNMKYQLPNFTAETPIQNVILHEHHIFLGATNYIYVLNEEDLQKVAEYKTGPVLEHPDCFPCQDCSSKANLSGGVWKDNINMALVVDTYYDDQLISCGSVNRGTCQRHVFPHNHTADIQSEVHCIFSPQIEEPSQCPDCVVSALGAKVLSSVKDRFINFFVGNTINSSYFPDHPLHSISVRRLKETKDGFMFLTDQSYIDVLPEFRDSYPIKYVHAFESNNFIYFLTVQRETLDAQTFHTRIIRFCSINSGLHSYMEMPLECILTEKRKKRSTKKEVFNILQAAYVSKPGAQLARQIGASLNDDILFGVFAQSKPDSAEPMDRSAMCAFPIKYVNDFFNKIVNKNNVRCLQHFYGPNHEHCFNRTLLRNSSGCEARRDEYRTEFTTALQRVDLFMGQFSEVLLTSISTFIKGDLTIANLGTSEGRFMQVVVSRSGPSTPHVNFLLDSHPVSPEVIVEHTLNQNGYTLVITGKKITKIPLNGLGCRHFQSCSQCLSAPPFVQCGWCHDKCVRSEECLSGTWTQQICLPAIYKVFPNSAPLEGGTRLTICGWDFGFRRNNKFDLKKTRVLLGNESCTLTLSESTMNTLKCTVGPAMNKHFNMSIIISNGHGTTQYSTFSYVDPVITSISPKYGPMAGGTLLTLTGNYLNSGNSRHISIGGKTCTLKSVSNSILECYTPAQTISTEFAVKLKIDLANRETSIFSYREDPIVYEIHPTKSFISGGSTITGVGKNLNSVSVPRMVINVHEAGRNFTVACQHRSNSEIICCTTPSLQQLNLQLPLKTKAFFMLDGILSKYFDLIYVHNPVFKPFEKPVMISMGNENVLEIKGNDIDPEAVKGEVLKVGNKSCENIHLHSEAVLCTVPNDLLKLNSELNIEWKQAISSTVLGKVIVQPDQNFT
Procedure: (§2) To investigate along this line, we tested the competition between mAbs and HGF by ELISA. Recombinant human and mouse HGF (R&D Systems) were biotinylated at the N-terminus using NHS-LC-biotin (Thermo Scientific). MET-Fc protein, either human or mouse (R&D Systems), was immobilized in solid phase and then exposed to 0.3 nM biotinylated HGF, either human or mouse, in the presence of increasing concentrations of antibodies (0-120 nM).
(§3) A MET-Fc chimeric protein (either human or mouse) was immobilized in solid phase and exposed to a fixed concentration of biotinylated HGF (either human or mouse), in the presence of increasing concentrations of antibodies. […] Antibody-HGF competition is expressed as IC₅₀ (the concentration that achieves 50% competition) and IMAX (the maximum % competition reached at saturation).

[4] = target: T2, native mouse MET on living mouse cells; test: cell-based or functional assay
[5] = target: T1, native human MET on living human cells; test: cell-based or functional assay
[6] = target: T2, native mouse MET on living mouse cells; test: cell-based or functional assay; remark: listed apart in the source
[7] = target: T1, native human MET on living human cells; test: cell-based or functional assay; remark: listed apart in the source
[8] = target: T4, mouse MET-Fc chimeric protein (R&D Systems) (mouse, UniProt P16056 25-929, limits assumed); test: competition ELISA, mMET-Fc in solid phase, competitor 0.3 nM biotinylated mHGF
T4 construct: bought (R&D Systems); also called mMET; not shown: Fc
Procedure: as §2, §3

[9] = target: T5, mouse MET extracellular domain (ECD) (mouse, UniProt P16056 25-931); test: ELISA, periplasmic Fab on MET ECD
T5 construct: range 1-931; recombinant ECD; also called mMET; mouse MET ECD
Procedure: (§4) Fab-expressing phages from the libraries described above were produced according to standard phage display protocols. For selection, phages were first adsorbed to immobilized recombinant human MET ECD, washed, and then eluted using trypsin. After two cycles of selection with human MET ECD, two other cycles were performed in the same fashion using mouse MET ECD. In parallel, we also selected phages alternating a human MET ECD cycle with a mouse MET ECD cycle, for a total of four cycles. Phages selected by the two approaches were pooled together and then used to infect TG1 E. coli. Individual colonies were isolated and secretion of Fabs was induced using IPTG (Fermentas). The Fab-containing periplasmic fraction of bacteria was collected and tested for its ability to bind human and mouse MET ECD by Surface Plasmon Resonance (SPR). Human or mouse MET ECD was immobilized on a CM-5 chip using amine coupling in sodium acetate buffer (GE Healthcare). The Fab-containing periplasmic extracts were loaded into a BIACORE 3000 apparatus (GE Healthcare) with a flow rate of 30 μl/min. The Fab off-rates (koff) were measured over a two minute period. Binding of Fabs to human and mouse MET was further characterized by ELISA using MET ECD in solid phase and periplasmic crude extract in solution.
(§5) TABLE 7 Fabs binding to both human MET (hMET) and mouse MET (mMET). Fabs are grouped in families based on their VH CDR3 sequence. Binding of Fabs to human and mouse MET ECD was determined by Surface Plasmon Resonance (SPR) and by ELISA. SPR values represent the koff (s⁻¹). ELISA values represent the Optical Density (OD) at 450 nm (AU, arbitrary units). Both SPR and ELISA were performed using crude periplasmic extracts. Fab concentration in the extract was not determined. Values are the mean of three independent measurements.

[10] = target: T6, human MET extracellular domain (ECD) (human, UniProt P08581 25-932); test: ELISA, periplasmic Fab on MET ECD
T6 construct: range 1-932; recombinant ECD; also called hMET; human MET ECD
T6 sequence (P08581 25-932 limits assumed, form in doubt): as the sequence (P08581 25-932, change not shown) above
Procedure: as §4, §5

T1 sequence (P08581 25-1390): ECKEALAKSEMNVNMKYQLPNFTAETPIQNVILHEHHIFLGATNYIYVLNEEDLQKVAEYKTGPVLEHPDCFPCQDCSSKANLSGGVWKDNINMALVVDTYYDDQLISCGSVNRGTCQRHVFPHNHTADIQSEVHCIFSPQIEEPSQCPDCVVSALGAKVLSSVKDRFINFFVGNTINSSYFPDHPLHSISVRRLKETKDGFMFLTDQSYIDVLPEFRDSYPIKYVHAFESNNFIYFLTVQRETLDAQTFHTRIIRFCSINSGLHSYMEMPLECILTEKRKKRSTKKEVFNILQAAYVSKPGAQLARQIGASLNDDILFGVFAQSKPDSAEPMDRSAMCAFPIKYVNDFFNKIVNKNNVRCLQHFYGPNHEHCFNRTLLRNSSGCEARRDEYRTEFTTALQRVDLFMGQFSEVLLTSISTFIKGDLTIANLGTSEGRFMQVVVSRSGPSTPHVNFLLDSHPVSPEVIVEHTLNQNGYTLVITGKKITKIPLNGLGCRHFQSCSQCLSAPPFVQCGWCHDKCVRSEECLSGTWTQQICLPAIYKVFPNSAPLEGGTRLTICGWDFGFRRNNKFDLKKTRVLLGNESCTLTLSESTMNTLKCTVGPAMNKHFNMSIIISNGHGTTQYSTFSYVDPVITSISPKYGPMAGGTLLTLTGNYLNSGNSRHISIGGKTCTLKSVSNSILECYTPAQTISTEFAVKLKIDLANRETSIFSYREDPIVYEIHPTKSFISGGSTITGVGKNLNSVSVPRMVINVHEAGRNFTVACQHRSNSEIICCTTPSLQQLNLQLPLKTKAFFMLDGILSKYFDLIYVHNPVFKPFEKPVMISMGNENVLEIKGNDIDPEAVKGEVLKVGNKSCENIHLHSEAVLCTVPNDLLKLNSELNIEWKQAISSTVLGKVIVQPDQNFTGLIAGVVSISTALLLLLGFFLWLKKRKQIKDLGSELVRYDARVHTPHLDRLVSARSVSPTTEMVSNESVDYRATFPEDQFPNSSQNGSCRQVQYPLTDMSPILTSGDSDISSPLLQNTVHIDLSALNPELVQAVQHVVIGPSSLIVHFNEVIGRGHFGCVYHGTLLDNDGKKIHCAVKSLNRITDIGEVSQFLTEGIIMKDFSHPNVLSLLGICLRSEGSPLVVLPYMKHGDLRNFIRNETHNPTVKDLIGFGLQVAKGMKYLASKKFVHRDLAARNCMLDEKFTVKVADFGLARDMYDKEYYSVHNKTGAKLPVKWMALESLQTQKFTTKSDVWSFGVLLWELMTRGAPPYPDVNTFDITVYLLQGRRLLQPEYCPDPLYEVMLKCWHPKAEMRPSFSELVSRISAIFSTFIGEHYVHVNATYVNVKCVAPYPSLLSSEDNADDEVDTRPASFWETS

B4: Fab 71G2 (Fab, V domains shown)
VH: EVQLQESGGGLVQPGGSLRLSCAASGFTFSIYDMSWVRQAPGKGLEWVSTINSDGSSTSYVDSVKGRFTISRDNAKNTLYLQMNSLKPEDTAVYYCAKVYGSTWDVGPMGYGMDYWGKGTLVTVSS
VL: SSALTQPSALSVSLGQTARITCQGGSLGSSYAHWYQQKPGQAPVLVIYGDDSRPSGIPERFSGSSSGGTATLTISGAQAEDEDDYYCQSTDSSGNTVFGGGTRLTVL
notes: llama Fab (VH-CH1, lambda VL-CL) with MYC flag, crude periplasmic extract
ELISA OD450 [9]: 0.543 AU | ELISA OD450 [10]: 0.561 AU

B5: Fab 71A3 (Fab, V domains shown)
VH: EVQLVESGGGLVQPGGSLRLSCAASGFSFKDYDITWVRQAPGKGLEWVSTITSRSGSTSYVDSVKGRFTISGDNAKNTLYLQMNSLKPEDTAVYYCAKVYATTWDVGPLGYGMDYWGKGTLVTVSS
VL: SYELTQPSALSVTLGQTAKITCQGGSLGSSYAHWYQQKPGQAPVLVIYDDDSRPSGIPERFSGSSSGGTATLTISGAQAEDEGDYYCQSADSSGNAAVFGGGTHLTVL
notes: as for B4
ELISA OD450 [9]: 0.524 AU | ELISA OD450 [10]: 0.581 AU

B6: Fab 71D6 (Fab, V domains shown)
VH: ELQLVESGGGLVQPGGSLRLSCAASGFTFSSYGMSWVRQAPGKGLEWVSAINSYGGSTSYADSVKGRFTISRDNAKNTLYLQMNSLKPEDTAVYYCAKEVRADLSRYNDYESYDYWGQGTQVTVSS
VL: QPVLNQPSALSVTLGQTAKITCQGGSLGARYAHWYQQKPGQAPVLVIYDDDSRPSGIPERFSGSSSGGTATLTISGAQAEDEGDYYCQSADSSGSVFGGGTHLTVL
notes: as for B4
ELISA OD450 [9]: 3.07 AU | ELISA OD450 [10]: 3.26 AU

B7: Fab 71C3 (Fab, V domains shown)
VH: B6 VH with E1Q, Y32H, G33A, Y54G, V100L, A102F, S105A, N108T, S112A, Y113W
VL: B5 VL
notes: as for B4
ELISA OD450 [9]: 1.64 AU | ELISA OD450 [10]: 1.65 AU

B8: Fab 71D4 (Fab, V domains shown)
VH: B6 VH with S31G, A50D, Y54G, E99D, V100M, A102L, D103Y, S105A, S112A, Y113W
VL: B5 VL with Y2S, E3A
notes: as for B4
ELISA OD450 [9]: 0.307 AU | ELISA OD450 [10]: 0.311 AU

More lines, main results first:

EMAX (% relative to control) [1]: 85.7% | EMAX (% relative to control) [2]: 73.8% | IMAX (maximum % competition) [3]: 76.9% | cell scattering score, MLP29, 0.001 nM [4]: 0 score 0-4 | cell scattering score, MLP29, 0.004 nM [4]: 0 score 0-4 | cell scattering score, MLP29, 0.012 nM [4]: 0 score 0-4 | cell scattering score, MLP29, 0.037 nM [4]: 1 score 0-4 | cell scattering score, MLP29, 0.111 nM [4]: 2 score 0-4 | cell scattering score, MLP29, 0.333 nM [4]: 3 score 0-4 | cell scattering score, MLP29, 1.000 nM [4]: 3 score 0-4 | cell scattering score, MLP29, 3.000 nM [4]: 4 score 0-4 | cell scattering score, MLP29, 9.000 nM [4]: 4 score 0-4 | cell scattering score, HPAF-II, 0.001 nM [5]: 0 score 0-4 | cell scattering score, HPAF-II, 0.004 nM [5]: 0 score 0-4 | cell scattering score, HPAF-II, 0.012 nM [5]: 0 score 0-4 | cell scattering score, HPAF-II, 0.037 nM [5]: 1 score 0-4 | cell scattering score, HPAF-II, 0.111 nM [5]: 2 score 0-4 | cell scattering score, HPAF-II, 0.333 nM [5]: 3 score 0-4 | cell scattering score, HPAF-II, 1.000 nM [5]: 3 score 0-4 | cell scattering score, HPAF-II, 3.000 nM [5]: 4 score 0-4 | cell scattering score, HPAF-II, 9.000 nM [5]: 4 score 0-4 | IMAX (maximum % competition) [8]: 71.5%
B1: chimeric llama-human IgG1 mAb 74C8 (antibody, V domains shown)
VH: EVQLVESGGGLVQPGGSLRLSCAASGFTFRNYHMSWVRQVPGKGFEWISDINSAGGSTYYADSVKGRFTISRDNAKNTLYLEMNSLKPEDTALYYCARVNVWGVNYWGKGTLVSVSS
VL: QTVVTQEPSLSVSPGGTVTLTCGLSSGSVTTSNYPGWFQQTPGQAPRTLIYNTNSRHSGVPSRFSGSISGNKAALTITGAQPEDEADYYCSLYPGSYTNVFGGGTHLTVL
protection from staurosporine, viability EC50, MLP29 [6]: > 32 nM | protection from staurosporine, viability EMAX, MLP29 [6]: 37.5% | protection from staurosporine, viability EC50, MCF10A [7]: > 32 nM | protection from staurosporine, viability EMAX, MCF10A [7]: 41.7%

ELISA OD450 [9]: 3.7 AU | ELISA OD450 [10]: 3.7 AU
B2: Fab 76H10 (Fab, V domains shown)
VH: QLQLVESGGGLVQPGGSLRVSCTASGFTFNTYYMTWVRQAPGKGLEWVSDINSGGGTYYADSVKGRFTISRDNAKNTLYLQMNSLKPEDTALYYCVRVRIWPVGYDYWGQGTQVTVSS
VL: B1 VL with T2A, S55N, P94T, N99T
notes: as for B4

ELISA OD450 [9]: 3.44 AU | ELISA OD450 [10]: 3.46 AU
B3: Fab 71G3 (Fab, V domains shown)
VH: QVQLVESGGGLVQPGGSLRVSCAASGFTFSTYYMSWVRQAPGKGLEWVSDIRTDGGTYYADSVKGRFTMSRDNAKNTLYLQMNSLKPEDTALYYCARTRIFPSGYDYWGQGTQVTVSS
VL: QAVVTQEPSLSVSPGGTVTLTCGLSSGSVTTSNYPGWFQQTPGQAPRTLIYNTNSRHSGVPSRFSGSISGNKAALTIMGAQPEDEADYYCSLYPGSTTVFGGGTHLTVL
notes: as for B4

EMAX (% relative to control) [1]: 156% | EMAX (% relative to control) [2]: 172% | IMAX (maximum % competition) [3]: 77.3% | cell scattering score, MLP29, 0.001 nM [4]: 0 score 0-4 | cell scattering score, MLP29, 0.004 nM [4]: 0 score 0-4 | cell scattering score, MLP29, 0.012 nM [4]: 0 score 0-4 | cell scattering score, MLP29, 0.037 nM [4]: 0 score 0-4 | cell scattering score, MLP29, 0.111 nM [4]: 0 score 0-4 | cell scattering score, MLP29, 0.333 nM [4]: 0 score 0-4 | cell scattering score, MLP29, 1.000 nM [4]: 1 score 0-4 | cell scattering score, MLP29, 3.000 nM [4]: 2 score 0-4 | cell scattering score, MLP29, 9.000 nM [4]: 3 score 0-4 | cell scattering score, HPAF-II, 0.001 nM [5]: 0 score 0-4 | cell scattering score, HPAF-II, 0.004 nM [5]: 0 score 0-4 | cell scattering score, HPAF-II, 0.012 nM [5]: 0 score 0-4 | cell scattering score, HPAF-II, 0.037 nM [5]: 0 score 0-4 | cell scattering score, HPAF-II, 0.111 nM [5]: 0 score 0-4 | cell scattering score, HPAF-II, 0.333 nM [5]: 0 score 0-4 | cell scattering score, HPAF-II, 1.000 nM [5]: 1 score 0-4 | cell scattering score, HPAF-II, 3.000 nM [5]: 2 score 0-4 | cell scattering score, HPAF-II, 9.000 nM [5]: 3 score 0-4 | IMAX (maximum % competition) [8]: 72.8%
B9: chimeric llama-human IgG1 mAb 72F8 (antibody, V domains shown)
VH: ELQLVESGGGLVQPGGSLRLSCAASGFTFSNYVMSWVRQAPGKGLEWVSDTNSGGSTSYADSVKGRFTISRDNAKNTLYLQMNSLKPEDTALYYCARSFFYGMNYWGKGTQVTVSS
VL: QSALTQPPSLSASPGSSVRLTCTLSSGNNIGSYDISWYQQKAGSPPRYLLNYYTDSRKHQDSGVPSRFSGSKDASANAGLLLISGLQPEDEADYYCSAYKSGSYRWVFGGGTHVTVL
protection from staurosporine, viability EC50, MLP29 [6]: > 32 nM | protection from staurosporine, viability EMAX, MLP29 [6]: 43.8% | protection from staurosporine, viability EC50, MCF10A [7]: > 32 nM | protection from staurosporine, viability EMAX, MCF10A [7]: 35.8%
